Results as given in article PMC10207894, “A MOF/DNA luminescent sensing platform for detection of potential COVID-19 biomarkers and drugs†”.

Biological target: interleukin-10 (IL-10) (UniProt P22301 19-178)
Assay: luminescence quenching on Y-MOF; 1 uM protein; no obvious quenching at 514 nm; Y-MOF suspension 0.1 g/L (900 uL) mixed with 1 uM DNA (100 uL) 30 min; excitation 380 nm, IL-6 0-14.4 nM; buffer, salt, pH and temperature not stated
Details: protein: commercial; chain copies: 2; label: 5'-FAM; stem-loop

interleukin-10 (IL-10), sequence (P22301 19-178): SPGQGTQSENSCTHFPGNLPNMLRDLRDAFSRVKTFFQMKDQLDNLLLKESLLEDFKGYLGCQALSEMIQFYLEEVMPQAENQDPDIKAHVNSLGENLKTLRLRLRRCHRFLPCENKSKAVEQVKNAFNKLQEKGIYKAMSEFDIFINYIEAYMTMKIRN

B1: S2 (extended IL-6 aptamer) (structured_DNA)
DNA: TTTTTTTAAGCTTACCTGCCATGCCAGTACCCCCAGGAGAAGATTCCAAAGATGTGGCCGCCCCACAAAAAAAA
binding result: no binding
